Data from the Immune Epitope Database (IEDB).

Key:
Assay in all cases: IEDB peptide-MHC binding, purified MHC/competitive/radioactivity; ≥ and ≤ were set here for values at or beyond the usual limits of such assays
Conditions in all cases: source organism: Hepatitis B virus
[1] = molecular target: HLA-A*01:01
[2] = molecular target: HLA-A*29:02
[3] = molecular target: HLA-A*30:02
[4] = molecular target: HLA-B*51:01
[5] = molecular target: HLA-B*53:01
[6] = molecular target: HLA-B*54:01
[7] = molecular target: HLA-A*68:01
[8] = molecular target: HLA-A*23:01
[9] = molecular target: HLA-A*24:02
[10] = molecular target: HLA-A*31:01
[11] = molecular target: HLA-A*33:01
[12] = molecular target: HLA-B*35:01
[13] = molecular target: HLA-A*02:02
[14] = molecular target: HLA-A*02:03
[15] = molecular target: HLA-A*02:06
[16] = molecular target: HLA-A*68:02

ASFCGSPY
IC50 [1]: 51.4 nM | IC50 [2]: 86.9 nM | IC50 [3]: 4.3 nM

FPHCLAFSYM
IC50 [4]: 68.9 nM | IC50 [5]: 128 nM | IC50 [6]: 214 nM

HTLWKAGILYK
IC50 [7]: 48.2 nM

LSLDVSAAFY
IC50 [1]: 333 nM | IC50 [2]: 44.2 nM

LWFHISCLTF
IC50 [8]: 7.7 nM | IC50 [9]: 6.5 nM

QAFTFSPTYK
IC50 [7]: 7.1 nM

RFSWLSLLVPF
IC50 [8]: 12.6 nM | IC50 [9]: 101 nM

RWMCLRRFII
IC50 [8]: 7.5 nM

SAICSVVRR
IC50 [7]: 22.9 nM

STLPETTVVRR
IC50 [10]: 190 nM | IC50 [11]: 187 nM

TPARVTGGVF
IC50 [12]: 71.6 nM

WMMWYWGPSLY
IC50 [2]: 133 nM | IC50 [3]: 46.4 nM

YMDDVVLGV
IC50 [13]: 90.6 nM | IC50 [14]: 11.5 nM | IC50 [15]: 90.6 nM | IC50 [16]: 422 nM

YPALMPLYACI
IC50 [4]: 119 nM | IC50 [6]: 111 nM
